Assay results: the nanobody polyreactivity screen of Harvey et al. (2022)

assay: yeast display, Sf9 membrane polyspecificity reagent, FACS + sequencing; frameworks hold sequencing errors
In short: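 Nanobodies came from a synthetic yeast display library in Saccharomyces cerevisiae BJ5465, induced with galactose for 36–48 hours and stained for 1 hour at 4 °C with 10% biotinylated, detergent-solubilized Sf9 membrane reagent. Cells were enriched on streptavidin microbeads and then FACS-sorted, with low and high (top ~1%) gates set on anti-HA fluorescence for expression and streptavidin fluorescence for reagent binding. Each polyreactivity label reflects the gate a clone came from. Genes were amplified by colony PCR, sequenced by MiSeq 2 × 250 and filtered by CDR length.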

Sequence | polyreactivity (PSR sort gate)
QVQLVESGGGLVQAGGSLRLSCAASGSTHVYAMGWYRQAPGKERELVAAISLNTGSTYYADSVKGRFTISRDNAKNTVYLQMNSLKPEDTAVYRLNYWGQGTQVTVSS | low polyreactivity
QVQLVESGGGLVQAGGSLRLSCAASGSTIDYYAMGWYRQAPGKERELVAAISWSGGSTYYADSVKGRFTISRDNAKNTVYLQMYSLKTEDTAVYYCAAYSAFYTGSYNGWSDYDYWGQGTQVTVSS | low polyreactivity
QVQLVESGGGLVQAGGSLRLSCAASGSTIEDYAMGWYRQAPGKERELVAAITSGDSTNYADSVKGRFTISRDNAKNTVYLQMISLKPEDTAVYYCFDLSNRYAVRYDYWGQGTQVTVSS | high polyreactivity
QVQLVESGGGLVQAGGSLRLSCAASGSTIEDYAMGWYRQAPGKERELVAAITSGDSTNYADSVKGRFTISRDNAKNTVYLQMNSLKPEDTAVYYCAARLRYSFWYWDDYWGQGTQVTVSS | high polyreactivity
QVQLVESGGGLVQAGGSLRLSCAASGSTIFLYDMGWYRQAPGKERELVAAITISGGSTYYADSVKGRFTISRDNAKNTVYLQMNSLKPEDTAVYDCNADYQWYLGGYDYWGQGTQVTVSS | high polyreactivity
QVQLVESGGGLVQAGGSLRLSCAASGSTIFSYAMGWYRQAPGKERELVAAITYRSSRTYYADSVKGRFTISRDNAKNTVYLQMNSLKPEDTAVYYCAAGYFSYRRYDYWGQGTQVTVSS | high polyreactivity
QVQLVESGGGLVQAGGSLRLSCAASGSTIGDNAMGWYRQAPGIERELGASMSWSGASTYYADSVKGRFTISRDNAKNTVYLQMNCLKPDDTAVYYCGVYYSYYSHLYHMLFYYWGQGTQVTVSS | low polyreactivity
QVQLVESGGGLVQAGGSLRLSCAASGSTILAYALGWYRPAPGKERELVAAIRRGGTSTYSADSLKGRFTISRDKAKKTVYLQINSLQPEDTAVYYCNKAYITKRGVSGSNDYWGQGTQVTVSS | low polyreactivity
QVQLVESGGGLVQAGGSLRLSCAASGSTILQNAMGWYRQAPGKERELVAAISRSGGSTYYADSVKGRFTISRDNAKNTVYLQMNSLKPEDTAVYYCARRYWPGSAYWIYDYWGQGTQVTVSS | high polyreactivity
QVQLVESGGGLVQAGGSLRLSCAASGSTIPSNAMGWYRQAPGKERELVASITYTDGTTRYADSVKGRFTISRDNAKNTVYLQMNSLKPEDTAVYYCNAVYYREGMDYWGQGTQVTVSS | low polyreactivity
QVQLVESGGGLVQAGGSLRLSCAASGSTIPSYALGWYRPAPGKERELGASITYSDGTTRYADSVKARFTISRDNAKNTVYLQMNSLKPEDTAVYYCNAVYYREGMDYWGQGTQVTVSS | low polyreactivity
QVQLVESGGGLVQAGGSLRLSCAASGSTIPSYAMGWYRQAPGKERELVASITYSDGTTRYADSVKGRFTISRDNAMNPVYFQMNSLKPEDSAVYYCNAVYYREGMDYWGQGTQVTVSS | low polyreactivity
QVQLVESGGGLVQAGGSLRLSCAASGSTIPTNAMGWYSQAPGKERELVAAITSTGSTYADSVKGRFTISRDNAKNTDYLQMNSLKPEDTAVYYCAADTQWTTPYDYWGQGTPVTVSS | low polyreactivity
QVQLVESGGGLVQAGGSLRLSCAASGSTIRDYAMGWYRQAPGKERELVAVIDNSGGRTYYADSVKGRFTISRDNAKNTVYLQMNSLKAEDTAVYYCNTRRIAQYGYWGQGTQVTVSS | high polyreactivity
QVQLVESGGGLVQAGGSLRLSCAASGSTIRFYYMGWYRQEPGKERELVAAITGIGDSTYYSDSVKGRFTISRDNAKNSVYLQMNSLKPEDTAVYYCAAERYYYTARLRYWRYFWGQGTQVTVSS | high polyreactivity
QVQLVESGGGLVQAGGSLRLSCAASGSTIRNYAMGWYRQAPGKERELVAAISSGGRTYYADSVKGRFTISRDNAKNTVYLQMNSLKPEDTAVYYCNTPYTVRGRYTYDYWGQGTQVTVSS | high polyreactivity
QVQLVESGGGLVQAGGSLRLSCAASGSTIRTNTMGWYRQAPGKERELVAAITKSGGSTYYADSVKGRFTISRDNAKNTVYLQMNSLKPEDTAVYYCAARVLYRSGLRGDYWGQGTQVTVSS | high polyreactivity
QVQLVESGGGLVQAGGSLRLSCAASGSTIRYYAMGWYRQAPGKEREFVAAITRSGGRTYYADSVKGRFTISRDNAKNTVYLQMNSLKPEDTADYYCAKVLYSPIGKYDYWGQGTQVTVSS | high polyreactivity
QVQLVESGGGLVQAGGSLRLSCAASGSTIRYYAMGWYRQAPGKERQLVAYITTSGGTYYADSVKGRFTISRDNAKNTVYLQMHSLKPEDTAVYYCAARRQDYTYYRIYHFDYWGQGTQVTVSS | high polyreactivity
QVQLVESGGGLVQAGGSLRLSCAASGSTISINALGWSRQAPGKERELVAAITGGDTNTYYADSVKGRFTISRDTAKNTVYLLMNSLKPEDTAVYYCNARIYDYAGAGTWSYDSWGQGTQVTVSS | low polyreactivity
QVQLVESGGGLVQAGGSLRLSCAASGSTISPNSMGWYRQAPGKERELVAAISSDASTNYADSVKGRFTISRDNAKNTVYLQRNCLTPDDTALYYCAADLWTLIYLTDTYGHWGQGTQVTVSS | low polyreactivity
QVQLVESGGGLVQAGGSLRLSCAASGSTISRNAMGWYRQAPGKERELVAAITSRSGRTYYADSVKGRFTISRDNAKNTVYLQMNSLKPEDTAVYYCAATVYQGAYTYQFYWGQGTQVTVSS | high polyreactivity

Sequence | polyreactivity (PSR sort gate)
QVQLVESGGGLVQAGGSLRLSCAASGSTISYYAMGWYRQAPGKERELVAAISSRGVITYYADSVKGRFTISRDNAKNTVYLQMNSLKPEDTAVYYCNVDSAWYPYETEDYWGQGTQVTVSS | low polyreactivity
QVQLVESGGGLVQAGGSLRLSCAASGSTITSYAMRLYRQAPGKDRELVASISRSGGRTYYADSVKGRFTISRDNAKNTVYLQMNSLKPEDTAVYYCAADDYSATTRYYYWGQGTQVTVSS | high polyreactivity
QVQLVESGGGLVQAGGSLRLSCAASGSTITYYTMGWYRQAPGKERELVAAISGSGGRTYYADSVKGRFTISRDNEKNTVYLQMNSLKPEDTAVYYCAAVYQLSRYDYWGQGTQVTVSS | high polyreactivity
QVQLVESGGGLVQAGGSLRLSCAASGSTIVPNTMGWYRQAPGKERELVAGITSGGSTYYADSVKGRFTISRDNAKNTVYLQMNSLKPEDTAVYYCAADDGSTANEKLIHEYNYWGQGTQVTVSS | low polyreactivity
QVQLVESGGGLVQAGGSLRLSCAASGSTIVVNAMGWYRQAPGKERELVAAISSNGGSYYADSVKGRFTISRDNAKNTVYLQMNSLKPEDTAVYYCAADSREEGDYWGQGTQVTVSS | low polyreactivity
QVQLVESGGGLVQAGGSLRLSCAASGSTIWSNAMVWYRQAPGKERELVAVISGGTSTNYADSVKGRFTISRDNAKNTVYLQMNSLKPEDTAVFYCAADWGSYLILINDTDMDYWGQGTQVTVSS | low polyreactivity
QVQLVESGGGLVQAGGSLRLSCAASGSTIYDNAMGWYRQAPGKERELVAAITWSVGRTYYADSVKGRFTISRDNAKNTVYLQMNSLKPEDTAVYYCAARSQDRSYFQVFVSDTPYNYWGQGTQVTVSS | low polyreactivity
QVQLVESGGGLVQAGGSLRLSCAASGSTIYGYAMGSYRQAPGKERELVAAISISGGGTYYADSVKGRFTISRDNAKNTVYIQMNSLKPEDTAVYYCARRYFWGQGTQVTVSS | low polyreactivity
QVQLVESGGGLVQAGGSLRLSCAASGSTLAKYAMGWYRQAPGKERELVAAISWSGGRTYYADSVKGRFTISRDNAKNTVYLQMNSLKPEDTAVYYCAARARSSRTYHDDYWGQGTQVTVSS | high polyreactivity
QVQLVESGGGLVQAGGSLRLSCAASGSTLALYAMGWYRQAPGKERELVAVITSGGSTDYADSVKGRFTISRDNAKNTVYLQMNSLKPEDTAVYYCAAEGRPGKYSYVYWGQGTQVTVSS | low polyreactivity
QVQLVESGGGLVQAGGSLRLSCAASGSTLATYTMGWYRQAPGKERELVAAISFGGSTYYADSVKGRFTISRDNAKNTVYLQMNSLKPEDTAVYYCAVYGDSYWGASYYSDGYWGQGTQVTVSS | low polyreactivity
QVQLVESGGGLVQAGGSLRLSCAASGSTLDGNTMGWYRQAPGKERELVAAISRSGTSTYYADSVKGRFTISRDNAKNTVYLQMNSLKPEDTAVYYCNAEASDLYYVYLEYDYWGQGTQVTVSS | low polyreactivity
QVQLVESGGGLVQAGGSLRLSCAASGSTLDRNTMGWYRQAPGKERELVAAITWSGGRTYYADSVKGRFTITRDNAKNTVYLQMNSLKPEDTAVYYCNKDYWKRPVDEYDYWGQGTQVTVSS | high polyreactivity
QVQLVESGGGLVQAGGSLRLSCAASGSTLDYYAIGWYRQAPGKEREFVAGIDSAGSTNYADSVKGRFTISRDNAKNTVYLQMNSLKTGRYRGLYCNVGKTITTYAFPTFDYWGQGTQVTVSS | low polyreactivity
QVQLVESGGGLVQAGGSLRLSCAASGSTLEPNAMGWYRQAPGKERELVAAITIGGSTYYADSVKGRFTISRDNAKNTVYLQMNSLKPEDTAVYYCAAKSTVQRRRHTNYDYWGQGTQVTVSS | high polyreactivity
QVQLVESGGGLVQAGGSLRLSCAASGSTLFDYTMGWYRQAPGNVRELVAAISSSGITDYADSVKGRFTISRDNAQNTVYLQMNSLKPDETAVYYCNARSQKATRYDYWGQGTQVTVSS | high polyreactivity
QVQLVESGGGLVQAGGSLRLSCAASGSTLFTYAMGWYRQAPGKERELVAAITSSGSTYYADSVKGRFTISRDNAKNTVYFQMNSLKPEDTAVYYCAVPGYRYTKYYYWGQGTQVTVSS | low polyreactivity
QVQLVESGGGLVQAGGSLRLSCAASGSTLGFNAMGWYRQAPGKEREFVAGISASGSSTYYADSVKGRFTISRDNAKNTVYLQMNSLKPEDTAVYYCAARASGGPYWSRGKYWGQGTQVTVSS | high polyreactivity
QVQLVESGGGLVQAGGSLRLSCAASGSTLGVNAMGRYRQAPGKEREFVAAITGRGGNSYYADSVKGRFTISRDNAKNTVYLKMNSLKPEDTAVYYCAAERQPYRTSSYNYWGQGSQVTVSS | high polyreactivity
QVQLVESGGGLVQAGGSLRLSCAASGSTLGVYAMGWYRQAPGTERELVAAISSGGSTTYADSVKGRFTISRDNEKNTVYLQMNSLKPEDTAVYYCAADRYEGYVTWYWWGAYNYDYWGQGTQVTVSS | high polyreactivity
QVQLVESGGGLVQAGGSLRLSCAASGSTLGVYVMGWYRPAPGKERELVAAISRNGGSTYYADSVKGRFTISRDNAMNTVYLQMNSLKPEDTAVYYCAARTVGRKAGFDYWGQGTQVTVSS | high polyreactivity
